# Results: patent US20100260765A1 (AstraZeneca / MedImmune, published 2010)
# Tests used:
# [1] = biological target: T1, cynomolgus KDR (cynomolgus monkey, UniProt A0A2K5VE63 20-1356); assay: FACS on Cyno KDR/293T transfectants, antibody 5 ug/mL
# T1 construct: whole, on cells; also called Cyno KDR
# Description: The binding of purified antibodies to cell-bound cynomolgus KDR (with parental cells as negative control) was tested by FACS analysis in this assay.
# Cynomolgus KDR was cloned in 3 pieces. One piece was PCR amplified from cynomolgus lung cDNA, and the remaining two pieces were PCR amplified from cynomolgus kidney cDNA. The three PCR products were inserted into pCR3.1 Bid vector. […] Transfected cells were seeded at 50,000 cells/well and incubated with 5 μg/mL of candidate antibody for one hour at 4° C. The cells were then washed and incubated with secondary antibody (Cy5-conjugated goat anti-human antibody, or Cy5-conjugated rabbit anti-goat antibody, plus 7-Amino-Actinomycin (7AAD)) for 15 minutes at 4° C. Binding between cynomolgus KDR and purified antibody was detected by FACS analysis.
# [2] = biological target: T2, whole KDR-ECD (Cat. # 676490, Calbiochem) (human, UniProt P35968 20-764); assay: ELISA, KDR-ECD coat 5 ug/mL, antibody 1 ug/mL
# T2 construct: extracellular domain; Bought soluble protein; also called soluble KDR; VEGF Receptor 2 D1-7
# Outline: (§1)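 Coat wells with the recombinant receptor protein, add purified antibody, then detect the bound antibody by ELISA. Isotype IgG1 and IgG4 are run alongside as controls.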
# [3] = biological target: T3, soluble KDR Ig4-7 domain (human, UniProt P35968 328-764); assay: ELISA, KDR Ig4-7 coat (1:1 diln.), antibody 0.01 ug/mL
# T3 construct: domain: Ig4-7 domain; also called b-KDRIg4-7-myc-his; Ig4-7 domain of KDR; not shown: myc-his tag of the pSecTag construct
# Outline: (§2)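 An ELISA format measured binding of the purified antibodies to coated receptor protein, covering both the mouse Flk-1/Fc ortholog and the isolated Ig4-7 region of KDR. Controls were IgG1 and IgG4 isotype antibodies.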
# [4] = biological target: T4, mouse KDR (Flk-1)/Fc (Cat. #443-KD/CF, R&D Systems, Inc.) (mouse, UniProt P35918 20-762); assay: ELISA, Flk-1 coat 5 ug/mL, antibody 0.01 ug/mL
# T4 construct: Bought reagent; also called mouse VEGFR2; KDR mouse ortholog; not shown: Fc of the bought fusion protein
# Description: (§3) The cross-reactivity of purified antibodies was tested against KDR mouse ortholog KDR mouse ortholog (mouse VEGFR2, or Flk-1) and human VEGFR1 (Flt-1). The ability of the antibodies to bind soluble KDR Ig4-7 domain and to the entire KDR extracellular domain (ECD) was also measured.
# (§4) Cross-reactivity experiments were carried out and measured using an ELISA based assay as described in Example 6. […] Antibody controls included IgG1 and IgG4 (Sigma-Aldrich, Cat. #15154 and #14639, respectively).
# [5] = biological target: T2, whole KDR-ECD (Cat. # 676490, …); assay: ELISA, KDR-ECD coat 5 ug/mL, antibody 0.1 ug/mL
# Outline: as §1
# [6] = biological target: T3, soluble KDR Ig4-7 domain; assay: ELISA, KDR Ig4-7 coat (1:1 diln.), antibody 0.1 ug/mL
# Outline: as §2
# [7] = biological target: T5, human KDR (human, UniProt P35968 20-1356); assay: cell-based or functional assay
# [8] = biological target: T5, human KDR; assay: FACS titration of purified antibody on HUVEC cells (FACS Kd)
# Description: The binding affinities of the purified antibodies for endogenously-expressed KDR in HUVEC cells was measured. HUVEC cells were seeded at 150,000 cells/well and incubated with titrations of purified antibody for 4 hours at 4° C. The cells were then washed and incubated with goat anti-human IgG-Fc-Cy5+5 μg/mL 7-Amino-Actinomycin (7AAD) for 30 minutes at 4° C. Bound KDR was detected using FACS analysis.
# [9] = biological target: T4, mouse KDR (Flk-1)/Fc (Cat. #443-KD/CF, …); assay: ELISA, Flk-1 coat 5 ug/mL, antibody 1 ug/mL
# Description: as §3, §4
# [10] = biological target: T2, whole KDR-ECD (Cat. # 676490, …); assay: ELISA, KDR-ECD coat 5 ug/mL, antibody 0.01 ug/mL
# Outline: as §1
# [11] = biological target: T4, mouse KDR (Flk-1)/Fc (Cat. #443-KD/CF, …); assay: ELISA, Flk-1 coat 5 ug/mL, antibody 0.1 ug/mL
# Description: as §3, §4
# [12] = biological target: T5, human KDR; assay: FACS competition on 293T/human KDR transfectants; antibody 5 ug/mL first, then competitor VEGF165 50 ng/mL; bound VEGF165 detected
# Description: (§5) Transfected cells were then seeded at 50,000 cells/well and incubated with 5 μg/mL of candidate antibody for one hour at 4° C. […] After washing, the cells were incubated with Cy5-conjugated rabbit anti-goat antibody plus 7AAD for 15 minutes at 4° C.
# [13] = biological target: T5, human KDR; assay: cell-based or functional assay; remark: listed apart in the source
# [14] = biological target: T5, human KDR; assay: cell-based or functional assay; remark: listed apart in the source
# [15] = biological target: T3, soluble KDR Ig4-7 domain; assay: ELISA, KDR Ig4-7 coat (1:1 diln.), antibody 1 ug/mL
# Outline: as §2
# [16] = biological target: T5, human KDR; assay: FACS competition on 293T/human KDR transfectants; antibody 5 ug/mL first, then competitor VEGF165 50 ng/mL; inhibition of VEGF binding
# Description: as §5
# T2 sequence (P35968 20-764): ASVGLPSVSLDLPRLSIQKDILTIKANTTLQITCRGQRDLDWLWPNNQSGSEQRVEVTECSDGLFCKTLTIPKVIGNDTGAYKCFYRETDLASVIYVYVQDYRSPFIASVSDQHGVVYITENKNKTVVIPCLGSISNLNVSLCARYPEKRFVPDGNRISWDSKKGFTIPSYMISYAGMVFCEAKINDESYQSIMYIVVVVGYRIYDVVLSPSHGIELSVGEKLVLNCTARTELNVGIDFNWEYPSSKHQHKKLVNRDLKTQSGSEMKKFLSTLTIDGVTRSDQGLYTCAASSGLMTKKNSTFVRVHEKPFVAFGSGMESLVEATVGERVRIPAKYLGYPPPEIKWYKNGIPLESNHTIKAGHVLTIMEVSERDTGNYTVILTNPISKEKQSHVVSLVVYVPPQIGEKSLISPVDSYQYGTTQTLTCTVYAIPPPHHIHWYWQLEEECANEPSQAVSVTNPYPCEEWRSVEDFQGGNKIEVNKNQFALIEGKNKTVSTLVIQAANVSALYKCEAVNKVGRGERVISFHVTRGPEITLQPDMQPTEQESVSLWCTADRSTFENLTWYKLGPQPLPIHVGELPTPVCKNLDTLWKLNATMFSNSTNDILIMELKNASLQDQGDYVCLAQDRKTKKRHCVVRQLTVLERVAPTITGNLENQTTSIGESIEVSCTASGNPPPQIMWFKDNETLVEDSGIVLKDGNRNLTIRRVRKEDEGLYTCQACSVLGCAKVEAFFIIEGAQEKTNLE
# T4 sequence (P35918 20-762 limits assumed): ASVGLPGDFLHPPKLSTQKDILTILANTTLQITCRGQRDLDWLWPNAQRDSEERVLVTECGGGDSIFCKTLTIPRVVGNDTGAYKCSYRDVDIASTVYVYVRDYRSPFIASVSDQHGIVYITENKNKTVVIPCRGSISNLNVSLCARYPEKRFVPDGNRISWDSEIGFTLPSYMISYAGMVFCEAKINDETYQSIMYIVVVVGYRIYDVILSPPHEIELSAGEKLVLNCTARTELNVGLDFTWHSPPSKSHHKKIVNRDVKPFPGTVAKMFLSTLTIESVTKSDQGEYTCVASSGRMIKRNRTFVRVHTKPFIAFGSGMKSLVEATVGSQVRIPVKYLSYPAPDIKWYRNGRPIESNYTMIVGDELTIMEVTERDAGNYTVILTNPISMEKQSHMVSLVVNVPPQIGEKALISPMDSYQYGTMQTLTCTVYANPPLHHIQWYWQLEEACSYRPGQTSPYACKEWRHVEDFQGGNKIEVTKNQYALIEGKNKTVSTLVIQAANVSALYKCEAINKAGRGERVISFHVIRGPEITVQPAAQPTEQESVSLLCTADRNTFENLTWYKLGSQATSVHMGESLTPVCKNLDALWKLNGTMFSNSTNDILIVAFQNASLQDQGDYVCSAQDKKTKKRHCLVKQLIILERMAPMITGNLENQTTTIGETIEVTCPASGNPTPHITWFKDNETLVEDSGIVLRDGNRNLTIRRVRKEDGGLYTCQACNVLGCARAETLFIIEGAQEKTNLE
# T1 sequence (A0A2K5VE63 entry or part of it): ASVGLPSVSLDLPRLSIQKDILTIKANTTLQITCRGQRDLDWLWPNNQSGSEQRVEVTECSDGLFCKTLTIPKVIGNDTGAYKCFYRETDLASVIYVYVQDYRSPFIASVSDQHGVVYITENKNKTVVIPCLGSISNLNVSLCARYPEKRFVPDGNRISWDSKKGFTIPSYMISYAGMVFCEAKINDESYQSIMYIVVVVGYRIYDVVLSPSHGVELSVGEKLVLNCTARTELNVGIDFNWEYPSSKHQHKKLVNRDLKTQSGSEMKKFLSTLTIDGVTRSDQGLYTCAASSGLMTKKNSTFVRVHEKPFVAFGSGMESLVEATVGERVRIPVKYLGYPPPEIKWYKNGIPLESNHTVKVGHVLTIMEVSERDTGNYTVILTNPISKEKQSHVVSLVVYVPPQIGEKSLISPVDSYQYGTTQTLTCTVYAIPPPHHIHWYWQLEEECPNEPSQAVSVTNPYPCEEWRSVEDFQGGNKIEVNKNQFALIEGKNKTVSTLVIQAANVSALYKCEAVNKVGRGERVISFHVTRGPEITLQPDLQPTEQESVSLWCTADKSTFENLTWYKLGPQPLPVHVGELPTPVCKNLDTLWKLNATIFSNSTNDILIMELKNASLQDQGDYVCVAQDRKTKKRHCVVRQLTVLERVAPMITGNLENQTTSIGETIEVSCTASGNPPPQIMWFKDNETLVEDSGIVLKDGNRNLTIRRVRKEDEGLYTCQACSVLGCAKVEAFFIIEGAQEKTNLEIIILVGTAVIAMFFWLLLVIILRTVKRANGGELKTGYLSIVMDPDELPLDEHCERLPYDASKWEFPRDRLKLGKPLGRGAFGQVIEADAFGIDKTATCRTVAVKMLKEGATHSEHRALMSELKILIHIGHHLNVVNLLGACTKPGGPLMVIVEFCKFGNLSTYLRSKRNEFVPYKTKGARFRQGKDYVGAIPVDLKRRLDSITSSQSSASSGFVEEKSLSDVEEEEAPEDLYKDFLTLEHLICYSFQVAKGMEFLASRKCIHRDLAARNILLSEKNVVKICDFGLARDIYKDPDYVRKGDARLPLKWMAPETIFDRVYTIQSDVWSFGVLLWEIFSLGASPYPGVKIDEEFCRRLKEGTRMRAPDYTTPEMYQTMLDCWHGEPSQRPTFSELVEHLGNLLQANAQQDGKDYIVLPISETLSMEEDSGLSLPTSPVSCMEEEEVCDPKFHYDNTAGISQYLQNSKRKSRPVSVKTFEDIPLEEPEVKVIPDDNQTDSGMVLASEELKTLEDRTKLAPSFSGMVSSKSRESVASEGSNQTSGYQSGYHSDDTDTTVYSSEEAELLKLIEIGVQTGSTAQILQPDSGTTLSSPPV
# T3 sequence (P35968 328-764): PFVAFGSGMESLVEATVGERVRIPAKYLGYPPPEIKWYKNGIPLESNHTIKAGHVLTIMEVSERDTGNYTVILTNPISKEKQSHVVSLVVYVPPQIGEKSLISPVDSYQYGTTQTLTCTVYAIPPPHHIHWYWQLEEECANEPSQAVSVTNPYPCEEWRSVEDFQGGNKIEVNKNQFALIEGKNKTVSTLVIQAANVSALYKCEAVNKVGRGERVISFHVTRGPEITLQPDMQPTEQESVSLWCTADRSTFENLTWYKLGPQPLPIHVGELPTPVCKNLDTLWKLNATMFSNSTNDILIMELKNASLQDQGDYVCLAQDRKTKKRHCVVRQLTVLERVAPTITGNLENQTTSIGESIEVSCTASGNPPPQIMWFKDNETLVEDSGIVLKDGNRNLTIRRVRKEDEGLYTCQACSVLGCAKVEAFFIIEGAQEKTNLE
# T5 sequence (P35968 20-1356): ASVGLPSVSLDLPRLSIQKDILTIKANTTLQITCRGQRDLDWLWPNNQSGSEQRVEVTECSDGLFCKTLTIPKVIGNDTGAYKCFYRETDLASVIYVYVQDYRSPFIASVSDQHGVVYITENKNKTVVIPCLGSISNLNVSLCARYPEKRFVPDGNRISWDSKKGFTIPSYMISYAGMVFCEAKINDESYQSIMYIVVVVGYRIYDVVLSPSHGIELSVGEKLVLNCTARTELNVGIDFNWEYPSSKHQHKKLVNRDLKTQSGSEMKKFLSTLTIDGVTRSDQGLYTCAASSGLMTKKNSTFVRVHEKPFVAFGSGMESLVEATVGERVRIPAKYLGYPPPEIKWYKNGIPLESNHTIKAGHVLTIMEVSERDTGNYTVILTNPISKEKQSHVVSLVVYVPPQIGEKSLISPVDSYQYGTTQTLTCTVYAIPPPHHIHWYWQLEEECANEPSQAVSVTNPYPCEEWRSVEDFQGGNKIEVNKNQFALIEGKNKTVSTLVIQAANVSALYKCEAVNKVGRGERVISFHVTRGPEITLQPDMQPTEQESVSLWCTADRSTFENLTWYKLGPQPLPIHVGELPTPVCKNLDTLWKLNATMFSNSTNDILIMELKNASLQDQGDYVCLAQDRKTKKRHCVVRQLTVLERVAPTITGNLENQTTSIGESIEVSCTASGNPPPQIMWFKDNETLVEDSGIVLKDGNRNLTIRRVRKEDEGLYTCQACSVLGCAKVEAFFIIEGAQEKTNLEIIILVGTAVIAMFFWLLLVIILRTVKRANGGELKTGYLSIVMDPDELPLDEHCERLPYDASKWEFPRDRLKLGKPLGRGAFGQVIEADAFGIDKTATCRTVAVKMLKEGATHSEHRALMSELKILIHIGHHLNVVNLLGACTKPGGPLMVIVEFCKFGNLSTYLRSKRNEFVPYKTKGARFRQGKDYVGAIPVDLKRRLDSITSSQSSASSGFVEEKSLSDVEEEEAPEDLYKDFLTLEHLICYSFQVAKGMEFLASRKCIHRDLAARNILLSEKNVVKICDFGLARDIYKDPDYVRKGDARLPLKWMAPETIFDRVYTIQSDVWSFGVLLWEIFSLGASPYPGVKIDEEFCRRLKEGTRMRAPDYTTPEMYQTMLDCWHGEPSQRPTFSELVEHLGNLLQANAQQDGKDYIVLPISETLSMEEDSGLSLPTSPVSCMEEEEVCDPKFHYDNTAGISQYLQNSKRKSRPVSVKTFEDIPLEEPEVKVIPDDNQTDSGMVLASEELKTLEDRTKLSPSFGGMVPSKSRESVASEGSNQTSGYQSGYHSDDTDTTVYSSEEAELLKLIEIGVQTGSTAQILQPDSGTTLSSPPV
Binder,FACS Geometric Mean Fluorescence [1],ELISA reading [2],ELISA reading [3],ELISA reading [4],ELISA reading [5],ELISA reading [6],"6-keto Prostaglandin F1α release, EC50 (nM), Average [7] [nM]","6-keto Prostaglandin F1α release, EC50 (nM), N = 1 [7] [nM]","6-keto Prostaglandin F1α release, EC50 (nM), N = 2 [7] [nM]","6-keto Prostaglandin F1α release, Maximum Inhibition (% Inhibition), Average [7] [%]","6-keto Prostaglandin F1α release, Maximum Inhibition (% Inhibition), N = 1 (200 nM) [7] [%]","6-keto Prostaglandin F1α release, Maximum Inhibition (% Inhibition), N = 2 (333 nM) [7] [%]",Kd [8] [nM],ELISA reading [9],ELISA reading [10],ELISA reading [11],FACS Geometric Mean Fluorescence (bound VEGF165) [12],"HUVEC survival, Maximum Inhibition at 50 nM (% Inhibition), Average [13] [%]","HUVEC survival, Maximum Inhibition at 50 nM (% Inhibition), N = 1 [13] [%]","HUVEC survival, Maximum Inhibition at 50 nM (% Inhibition), N = 2 [13] [%]",other results
"29D4 (antibody, V domains shown, Fully human monoclonal antibody from a XenoMouse hybridoma (IgG2 or IgG4 strain), purified) VH: QLQLQESGPGLVKPSETLSLTCTVSGGSISSRSNYWGWIRQPPGKGLEWIGTIYYSGHTYYNPSLKSRVSISVDTSKNQFSLKLSSVTATDTALYYCARQQLVLYYFEYWGQGTLVTVSS VL: not shown",115,2.15,0.08,1.17,0.096,0.078,3.2,3.2,3.2,56,45,67,1,3.29,0.089,2.59,116,92,89,95,"KDR tyrosine phosphorylation in HUVEC, EC50 (nM), Average [14]: 1.9 nM; KDR tyrosine phosphorylation in HUVEC, EC50 (nM), N = 1 [14]: 2 nM; KDR tyrosine phosphorylation in HUVEC, EC50 (nM), N = 2 [14]: 1.9 nM; KDR tyrosine phosphorylation in HUVEC, Maximum Inhibition at 100 nM (% Inhibition), Average [14]: 75%; KDR tyrosine phosphorylation in HUVEC, Maximum Inhibition at 100 nM (% Inhibition), N = 1 [14]: 74%; KDR tyrosine phosphorylation in HUVEC, Maximum Inhibition at 100 nM (% Inhibition), N = 2 [14]: 77%; ELISA reading [15]: 0.082; % Inhibition [16]: 11%"
"32F4 (antibody, V domains shown, Fully human monoclonal antibody from a XenoMouse hybridoma (IgG2 or IgG4 strain), purified) VH: QLQLQESGPGLVKPSGTLSLSCTVSGGSISSRSDYWGWIRQPPGKGLEWIGTIYYSGNTFYNPSLKSRVTISVDTSKKQFSLKLSSVTAADTAVYYCARQQLVLYYFDYWGQGTLVTVSS VL: EIVLTQSPGTLSLSPGERATLSCRTSQSVSSSYLAWYQQKPGQAPRLLIYGASSRATGVPDRFSGSGSGTDFSLTISRLEPEDFAVYYCQQYGSSPPLTFGGGTKVEIK",105,1.93,0.076,0.802,0.132,0.079,4.5,4.4,4.6,48,42,54,1.8,2.62,0.09,2,112,92,91,94,"KDR tyrosine phosphorylation in HUVEC, EC50 (nM), Average [14]: 1.8 nM; KDR tyrosine phosphorylation in HUVEC, EC50 (nM), N = 1 [14]: 1.7 nM; KDR tyrosine phosphorylation in HUVEC, EC50 (nM), N = 2 [14]: 1.9 nM; KDR tyrosine phosphorylation in HUVEC, Maximum Inhibition at 100 nM (% Inhibition), Average [14]: 75%; KDR tyrosine phosphorylation in HUVEC, Maximum Inhibition at 100 nM (% Inhibition), N = 1 [14]: 71%; KDR tyrosine phosphorylation in HUVEC, Maximum Inhibition at 100 nM (% Inhibition), N = 2 [14]: 79%; ELISA reading [15]: 0.114; % Inhibition [16]: 14%"
"33B1 (antibody, V domains shown, Fully human monoclonal antibody from a XenoMouse hybridoma (IgG2 or IgG4 strain), purified) VH: EVQLVESGGGLVKPGGSLRLSCAASGFTFSSYTMNWVRQAPGKGLEWVSFIDSRSSYIYYADSVKGRFTISRDNAKNSLYLQMNSLRAEDTAVYYCSKDDWFEELWGQGTLVTVSS VL: DIQMTQSPSSLSASVGDRVTITCRASQGIRNDLGWYQQKPGKAPKRLIYATSSLQSGVPSRFSGSGSGTEFTLTISSLQPEDFATYYCLHHNSFPWTFGQGTKVEIK",108,1.99,0.609,0.753,0.178,2.14,3840,17,7670,53,31,76,0.2,3.12,0.072,2.1,81,57,55,59,"KDR tyrosine phosphorylation in HUVEC, EC50 (nM), Average [14]: 1.1 nM; KDR tyrosine phosphorylation in HUVEC, EC50 (nM), N = 1 [14]: 1.2 nM; KDR tyrosine phosphorylation in HUVEC, EC50 (nM), N = 2 [14]: 1.1 nM; KDR tyrosine phosphorylation in HUVEC, Maximum Inhibition at 100 nM (% Inhibition), Average [14]: 86%; KDR tyrosine phosphorylation in HUVEC, Maximum Inhibition at 100 nM (% Inhibition), N = 1 [14]: 86%; KDR tyrosine phosphorylation in HUVEC, Maximum Inhibition at 100 nM (% Inhibition), N = 2 [14]: 86%; ELISA reading [15]: 3.04; % Inhibition [16]: 40%"
